# Source: US20190092852A1 (Genentech, published 2019)
# Values joined by “and” are separate entries in the source; they are usually repeats but may differ in a detail not shown here. Equal values may be shown once.
# T1: human IL-33 (Genentech, huIL33.his) (human, UniProt O95760 112-270)
# T1 sequence (looked up): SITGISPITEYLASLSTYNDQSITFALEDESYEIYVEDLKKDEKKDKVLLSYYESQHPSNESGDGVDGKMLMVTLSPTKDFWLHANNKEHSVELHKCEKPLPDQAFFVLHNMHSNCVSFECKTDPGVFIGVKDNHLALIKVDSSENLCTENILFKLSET
# T2: cyno IL-33 (construct not stated) (cynomolgus monkey, UniProt A0A2K5W3I1 112-269)
# T2 construct: also called cynomolgus IL-33; cyno IL-33 (Genentech)
# T2 sequence: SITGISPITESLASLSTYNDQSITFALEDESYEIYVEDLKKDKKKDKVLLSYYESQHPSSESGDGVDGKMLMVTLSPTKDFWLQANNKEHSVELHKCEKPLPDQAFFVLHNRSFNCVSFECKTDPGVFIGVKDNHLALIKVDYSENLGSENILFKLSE
# T3: human IL-33 (cell-based blocking assay of Example 2) (human, UniProt O95760 112-270)
# T3 sequence (looked up): T1 sequence (looked up)
# T4: cyno IL-33 (cell-based blocking assay of Example 2) (cynomolgus monkey, UniProt A0A2K5W3I1 95-269)
# T4 sequence: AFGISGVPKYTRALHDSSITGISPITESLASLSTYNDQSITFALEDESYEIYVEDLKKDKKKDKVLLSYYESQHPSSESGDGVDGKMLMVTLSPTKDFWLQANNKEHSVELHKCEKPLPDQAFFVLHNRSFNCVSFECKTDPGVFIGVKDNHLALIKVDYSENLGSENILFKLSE
# B1: 10C12 (antibody, V domains shown)
# VH: DVNLVESGGGSVKPGGSLKLSCVASGFTFSSFSMSWVRQTPEKRLEWVATISGGKTFTDYVDSVKGRFTISRDDAKNTLYLQMSSLESEDTAMYYCTRANYGNWFFEVWGAGTTVAVSS
# VL: DIVLTQSPGFLVVSLGQRATISCRASESVAKYGLSLLNWFQQKPGQPPKLLIFAASNRGSGVPARFSGSGSGTDFSLNIHPMEEDDTAMYFCQQSKEVPFTFGSGTKLEIK
# notes: Murine hybridoma clone from IL33 KO mouse
# B2: 10H2 (antibody, V domains shown)
# VH: EVKLEESGGGLVQPGGSMKLSCVASGFTFSNYWMNWVRQSPEKGLEWMAEITLKFNNYSTHYAESVKGRFSISRDDSKSTVYLQMNNLRAEDTGIYYCARRNYGDWYINVWGAGTTVTVSS
# VL: DIVLTQSPTSLAVSLGQRATISCRASESVDKFGMSFLNWFQQKPGQPPKLLIFVASSQGSGVPARFSGSGSGTDFSLNIHPVEEDDTAMYFCQQSKDIPYTFGGGTKLEIK
# notes: Murine hybridoma clone (Balb/C)
# B3: 9F6 (antibody, V domains shown)
# VH: QVQLQQSGNDLVKPGASVKLSCKASGYTFTSYWINWIKQRPGQGLEWIGRIAPGSGFISYNELFKDKATLTVDTSSSTAYIQLGSLSSEDSAVYFCAREFYYGSFYGGFAYWGQGTLVTVSA
# VL: DIQMNQSPSSLSASLGDTITITCHASQNIHVWLSWYQQKPGNIPKLLIYKASTLHTGVPSRFNGSGSGTGFTLTISSLQPEDIATYYCQQGQSSPLTFGAGTKLEVK
# notes: as for B2
# B4: 2B6 (antibody, V domains shown)
# VH: EVLLQQSGPELVKPGASVKISCNASGYTFSDYNMNWVKQSHGKSLESIGDINPKNGDTFYNQNFKDKATLTIDKSSSTVYMELRSLTSEDTAMYYCARHYYYGSSYGGFVYWGQGTLVTVAA
# VL: DIQMNQSPSSLSASLGDTITITCHASQNINVWLSWYQQKAGNNPKLLIYAASKLHTGVPSRFTGSGSGTLFTLTISSLQPEDIATYYCQQGQSYPLTFGSGTNLELK
# notes: as for B2
# B5: 10C12.38.H6.87Y.58I (antibody, V domains shown)
# VH: EVQLVESGGGLVQPGGSLRLSCAASGFTFSSFSMSWVRQAPGKGLEWVATISGGKTFTDYVDSVKGRFTISRDDSKNTLYLQMNSLRAEDTAVYYCTRANYGNWFFEVWGQGTLVTVSS
# VL: EIVLTQSPATLSLSPGERATLSCRASESVAKYGLSLLNWFQQKPGQPPRLLIFAASNRGSGIPARFSGSGSGTDFTLTISSLEPEDFAVYYCQQSKEVPFTFGQGTKVEIK
# B6: 6C11 (antibody, V domains shown)
# VH: EVKLEESGGGLVQPGGSMKLSCVASGFTFNKFWMNWVRQSPEKGLEWVAEIRLNSINYVKDYAESVKGRFTISRDDSKNSVYLQMNNLRAEDTGIYYCIRRNYGNWFFEIWGAGTTVTVSS
# VL: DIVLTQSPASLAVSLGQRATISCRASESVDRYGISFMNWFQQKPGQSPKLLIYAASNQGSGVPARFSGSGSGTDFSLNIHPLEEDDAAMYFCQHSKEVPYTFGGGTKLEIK
# notes: as for B2
# Biological target: T1, human IL-33 (Genentech, huIL33.his)
# Assay: SPR Biacore
row,Binder,Kd
1,B1,≤ 0.007 nM
2,B2,0.06 nM
3,B3,0.07 nM
4,B4,0.03 nM
5,B5,0.015 nM
6,B6,0.06 nM

# Biological target: T2, cyno IL-33 (construct not stated)
# Assay: SPR Biacore
row,Binder,Kd
1,B1,0.07 nM
2,B2,0.09 nM
3,B3,0.91 nM
4,B4,0.33 nM
5,B5,0.037 nM
6,B6,0.79 nM

# Biological target: T3, human IL-33 (cell-based blocking assay …)
# Assay: cell-based or functional assay
Binder,"IC50 (HEK-BLUE SEAP reporter, IL-33 blocking)","IC90 (HEK-BLUE SEAP reporter, IL-33 blocking)"
B1,0.0039 nM,18.2 pM and 0.0027 µg/mL
B2,0.0053 nM,31 pM and 0.0047 µg/mL
B5,0.002 nM,20.5 pM and 0.0031 µg/mL
B6,0.0213 nM,120 pM and 0.0181 µg/mL

# Biological target: T4, cyno IL-33 (cell-based blocking assay …)
# Assay: cell-based or functional assay
Binder,"IC50 (HEK-BLUE SEAP reporter, IL-33 blocking)","IC90 (HEK-BLUE SEAP reporter, IL-33 blocking)"
B1,0.142 nM,1290 pM and 0.193 µg/mL
B2,0.0174 nM,271 pM and 0.0407 µg/mL
B5,0.181 nM,1220 pM and 0.183 µg/mL
B6,> 10 nM,> 10000 pM and > 1.5 µg/mL

# Biological target: T3, human IL-33 (cell-based blocking assay …)
# Assay: cell-based or functional assay
# Remark: another data set of the same source
row,Binder,Cell assay (hu) IC90
1,B1,0.002 µg/mL and 0.013 nM
2,B2,0.003 µg/mL and 0.02 nM
3,B3,0.011 µg/mL and 0.73 nM
4,B4,0.02 µg/mL and 0.13 nM
5,B5,0.004 µg/mL and 0.026 nM
6,B6,0.021 µg/mL and 0.14 nM

# Biological target: T4, cyno IL-33 (cell-based blocking assay …)
# Assay: cell-based or functional assay
# Remark: another data set of the same source
row,Binder,Cell assay (cy) IC90
1,B1,0.193 µg/mL and 1.27 nM
2,B2,0.041 µg/mL and 0.27 nM
3,B3,> 1.5 µg/mL and > 9.9 nM
4,B4,0.526 µg/mL and 3.47 nM
5,B5,0.185 µg/mL and 1.22 nM
6,B6,> 1.5 µg/mL and > 9.9 nM
